# ± gives the half width of the 95% confidence interval.
# Experiments:
# [1] = folding stability dG unfold from chymotrypsin proteolysis; higher = more stable
# Experimental: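 Folding stability of de novo designed mini-proteins (<80 aa, no Cys; designed by TrROS, TrMRF, ProteinMPNN and the joint model) was measured by cDNA display proteolysis with trypsin and chymotrypsin. Each protease was used at 11 concentrations in a threefold dilution series plus a no-protease condition. K50 was inferred by Bayesian fitting of sequencing counts, and dG unfold was derived against a sequence-predicted unfolded-state K50 (Tsuboyama et al. method). Sequences shown include variable-length N-terminal GS-type padding (SAGGSAGG...) inside a display construct carrying a PA tag. Rows were kept only if the AF2 dimer inter-PAE was >15, to exclude likely homo-oligomers.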
# [2] = folding stability dG unfold (combined trypsin and chymotrypsin); higher = more stable
# Summary of the method: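 Unfolding free energy was derived, per protease or combined, by relating Bayesian-fitted K50 values from sequencing counts to a sequence-predicted unfolded-state K50 and a shared folded-state K50. The underlying digests exposed cysteine-free mini-proteins under 80 residues, in a PA-tagged cDNA display construct, to trypsin and chymotrypsin at 11 threefold-diluted concentrations and to a no-protease condition. A filter kept only designs with AlphaFold2 dimer inter-PAE above 15.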
Sequence,folding stability dG unfold [1] [kcal/mol],folding stability dG unfold [2] [kcal/mol]
SAGGSAGGSAGGTTLLFPDKIIRTLPLPPGAVFDVPPGLTLEGVEEDPSTGTLTVTVKGLSAGGSAGGSAGG [r11_942_JUSTAS],0.0814 ± 0.14,-0.211 ± 0.24
SAGGSAGGSAGGTVVPEKEARELARKVAEKGEPIEVEIGDPGPKKPRTVLITPEDLEERSAGGSAGGSAGGS [r10_779_JUSTAS],-0.219 ± 0.18,< -1
SAGGSAGGSAGGWTLEELKNAPPGEPVTITIPMYSPNGDKKQPMRIRITPDDGEIEIEMSAGGSAGGSAGGS [r10_394_TrROS],0.908 ± 0.13,0.406 ± 0.15
SAGGSAGGSAGIIEFPFPLNEAKKLAENLPPGFRPVNVEPDPDNDRIWVIIQVVPPKKGKSAGGSAGGSAGG [r17_98_TrROS],-0.992 ± 0.73,< -1
SAGGSAGGSAGKEPILAIPNPEFPDVVIIKTKDGVRAVPVEELKELDIDAVMSLEEALASSAGGSAGGSAGG [r17_88_TrMRF],0.731 ± 0.067,0.174 ± 0.2
SAGGSAGGSAGKKKIHVHQYPDGNYHIRVPNGKSYHFPPEDADELVEELGIDEVEIHPMDSAGGSAGGSAGG [r11_312_TrROS],0.0552 ± 0.089,-0.407 ± 0.16
SAGGSAGGSAGKKKITIDYEEIREKFGLPPDDIDNMSMSRVMNYAKPLAKEGKIDEIEISSAGGSAGGSAGG [r11_80_TrROS],-0.291 ± 0.53,< -1
SAGGSAGGSAGKLRFRRVGLVLELNEDGSLSLSPIEEEVEVEVPEPLPVGLGLGGKPYLLSAGGSAGGSAGG [r17_418_TrMRF],0.325 ± 0.27,-0.0408 ± 0.22
SAGGSAGGSAGKNNKVKLTYTIEVEGEGKPKKIKIEYYLSPNGIPEPPELIKSKAGGLAKSAGGSAGGSAGG [r17_373_TrMRF],0.306 ± 0.13,-0.191 ± 0.21
SAGGSAGGSAGMEPLKEIEVPFPGGWSIEIEVYPNGIKIEPNPNFDNPQMKKRILDALNPSAGGSAGGSAGG [r11_372_TrROS],-0.0677 ± 0.26,-0.445 ± 0.42
SAGGSAGGSAGMESKVVTLDVPLAPDETAEAVAARLRAADPAAVLLGYDPAAGRVTVRVASAGGSAGGSAGG [r11_465_JUSTAS],0.411 ± 0.078,-0.332 ± 0.087
SAGGSAGGSAGMIQIDQDPNNGNYKVKIRNPDGKPREFNVDSPDELEDAADKNGFPAEPISAGGSAGGSAGG [r11_1049_TrROS],-0.0704 ± 0.14,-0.512 ± 0.41
SAGGSAGGSAGMIVVPPEDLENLPPWYSVEPGEDSVTVWDESNPVVVPRDEPALVSPPERSAGGSAGGSAGG [r17_91_JUSTAS],0.72 ± 0.079,-0.136 ± 0.22
SAGGSAGGSAGMKTKATFVIDNEEYDATIDPGTPKNSTATVTKPDSTTTITVTNIKLFPESAGGSAGGSAGG [r11_247_JUSTAS],0.897 ± 0.062,0.346 ± 0.11
SAGGSAGGSAGMNIVVSSEEEAEKAIKELAKKLGKPNNLKNPKVTVIPLEPTPTGGLKKKSAGGSAGGSAGG [r17_237_JUSTAS],0.226 ± 0.077,-0.301 ± 0.16
SAGGSAGGSAGMRITVEPDRVVVHPPGGEEIVMPAPEWGEEEVLALAEEHPDVEVEPVPPSAGGSAGGSAGG [r17_545_JUSTAS],-1.01 ± 0.37,< -1

Sequence,folding stability dG unfold [1] [kcal/mol],folding stability dG unfold [2] [kcal/mol]
SAGGSAGGSAGMVIELPVPGTMSPEEARARAEEVAEELARRTGRPVEVREVRLVTPEELASAGGSAGGSAGG [r17_68_JUSTAS],-0.364 ± 0.086,-0.733 ± 0.4
SAGGSAGGSAGMVIKSPDGRIIEVEEEEEGEKLKIKRITYVGDKYTPSEEEIEVPPVDLKSAGGSAGGSAGG [r11_106_JUSTAS],-0.201 ± 0.54,< -1
SAGGSAGGSAGMYDVGFIEAPKDTAYIKFPEINYIAEIKLDPKNGGFSLDEIKLYPLNTKSAGGSAGGSAGG [r11_352_TrMRF],0.521 ± 0.067,0.107 ± 0.11
SAGGSAGGSAGNPKYVMVPLKFPDGNPVNIMVSDDEIHIYDMGPNKWRWIPADDLPPEAFSAGGSAGGSAGG [r11_155_TrROS],0.666 ± 0.15,0.215 ± 0.15
SAGGSAGGSAGPPPMEPIFTFTNPKEPVTIYRSKDPGNYHIYDPPNGKERTIPPNDPNFFSAGGSAGGSAGG [r11_1007_TrROS],-0.0661 ± 0.55,< -1
SAGGSAGGSAGPRVKFRFPGQEHTIPPGRRVYFGNGKKFDPGEPLDDIPPDNITPVEIEPSAGGSAGGSAGG [r17_511_TrROS],-0.297 ± 0.18,-0.609 ± 0.15
SAGGSAGGSAGRKTLPMRNPNNGHEVTAEIEDENGKPIKIEAPMNSPEMRDMARDFAKKISAGGSAGGSAGG [r11_119_TrROS],0.355 ± 0.13,-0.154 ± 0.18
SAGGSAGGSAGRRSVPEEVVEAIAEELPREGLTPKSIEVVEGEDEFEAVIEYDDRTITVAGSAGGSAGGSAG [r3_395_JUSTAS],0.492 ± 0.023,-0.101 ± 0.1
SAGGSAGGSAGSMVTPVTLERYVYIEPTPDGVERKRVVPVKVKETVTVDAAGNVTTTTEVLLSAGGSAGGSA [r18_284_JUSTAS],-0.871 ± 0.31,< -1
SAGGSAGGSAGSPNYIPKEVTIKVEGEGKPVEVKIKLTTSPEGKPASEEEILKKAEELLKSAGGSAGGSAGG [r17_373_JUSTAS],0.372 ± 0.058,0.0156 ± 0.34
SAGGSAGGSAGSSSSAVRESFQKSPTNVVTRTVTTYDANPSVLSTSSTTVPLSSVPPELLSAGGSAGGSAGG [r11_493_JUSTAS],0.44 ± 0.13,0.00507 ± 0.15
SAGGSAGGSAGSTTTRTVELPPGTSLEEVRARLEAEGYTGVVITEVERPPGPRLRVTVVGSAGGSAGGSAGG [r11_800_JUSTAS],0.293 ± 0.06,-0.0782 ± 0.22
SAGGSAGGSAGVVYPLAGRPVRIDTSATDSLVVTTEPPDGTRTTRTYPDMDLDEVLAALASAGGSAGGSAGG [r11_934_JUSTAS],0.639 ± 0.072,0.0129 ± 0.12
SAGGSAGGSAGYKPDPDGQYTQEMRLPREPPRIRITIPMSPNDPDKAQKFINNLAEEFGISAGGSAGGSAGG [r17_501_TrROS],-0.0614 ± 0.64,-0.32 ± 0.32
SAGGSAGGSAIKIETQGTPEEAREFAKDFANKNPELLENMKIDVITWRPPEPKYTPNGKPKSAGGSAGGSAG [r3_89_TrROS],-0.104 ± 0.2,-0.759 ± 0.24
SAGGSAGGSAITIKELAKEGYTIEIRPPDGKKETFKPGDSVDDPAEEFDLPPNWRIEIRPPSAGGSAGGSAG [r3_216_TrROS],-0.382 ± 0.3,< -1

# Source: the supplement of paper PMC12764529
